The text below walks through data of patent US20210188980A1 (SHANGHAI EPIMAB BIOTHERAPEUTICS, published 2021).

The target in experiment [1] is T1, human PD-1 ECD/Fc fusion protein (human).
T1 construct: also called huPD-1/Fc; HuPD-1 ECD/Fc
The experiment in a line: ELISA, coated huPD-1/Fc. The procedure: ELISA plates were incubated overnight at 4° C. with 50 μl of the synthetic human PD-1 ECD/Fc fusion protein targets described above diluted in PBS buffer, pH 7.4, at 1 μg/ml. Plates were washed four times in washing buffer (PBS containing 0.05% Tween 20), and blocked for 1 hour at 37° C. with 200 μl per well blocking buffer (1% BSA in PBS containing 0.05% Tween 20). After blocking buffer was removed, hybridoma supernatant (or later diluted purified mAbs) were added to the wells at 100 μl per well and incubated at 37° C. for 1 hour. The wells were washed four times with washing buffer, and anti-mouse HRP (Sigma) for mouse anti-human PD-1 antibody characterization were diluted 1:5000 and added to the wells at 100 μl per well. The plates were incubated for 1 hour at 37° C. and washed four times in washing buffer. 100 μl of tetramethylbenzidine (TMB) chromogenic solution were added per well. Following color development, the reaction was stopped with 1 Normal HCl and absorbance at 450 nm was measured on a SpectraMax M5e plate reader (Molecular Devices; San Jose, Calif., US).
A binding ELISA was performed in the same way as described in Example 1.3 above. Each purified antibody was 10-fold serially diluted and duplicated. After blocking of the 96-well assay plate with wells containing immobilized PD-1 ECD/Fc fusion protein targets, the purified antibody samples with diluted concentrations were added to wells of assay plates. The HRP-linked anti-mouse IgG antibody (A0168, Sigma) and TMB reagent were used to detect and develop the ELISA signal, which were read on a SpectraMax® M5e plate reader at wavelength of 450 nm. Curves were fitted using GraphPad software, and EC50 were calculated. Similarly, a receptor blocking assay (RBA) was also performed as described in Example 1.5 with titrated, purified antibodies, and top blocking percentages and IC50 values were determined.
Background: In an ELISA, binding on a coated surface is turned into a signal by an enzyme label.

Experiment [2] has as its target T2, human PD-1 expressed on cells (human, UniProt Q15116 25-288).
T2 construct: whole, on cells; also called CHO-K1/huPD-1; CHO-K1-hPD-1 cells
Nature of the experiment: FACS, CHO-K1/huPD-1 cells. The procedure:
(§1) CHO-K1/huPD-1 or CHO-K1/cynoPD-1 cells, described above, were charged at 2×10⁴ cell per well into 96-well assay round-bottomed assay plates (Cat. No. 3799; Corning) and stained with purified anti-PD-1 antibodies. PD-1 antibodies were detected with AlexaFluor® Donkey anti-Mouse IgG (H+L) Highly Cross-Adsorbed Secondary Antibody, (Cat. No. A21202; Invitrogen), and cell fluorescence was monitored using a flow cytometer. The data were processed by GraphPad software, and EC50 values were calculated.
(A flow cytometer gives signals particle by particle.)

The target of experiment [3] is T3, cynomolgus PD-1 expressed on CHO-K1 cells (cynomolgus monkey, UniProt B0LAJ3 25-288).
T3 construct: also called CHO-K1/cynoPD-1; CHO-K1-cynoPD-1
Nature of the experiment: FACS, CHO-K1/cynoPD-1 cells. The procedure: as §1

In experiment [4] the target is T1, human PD-1 ECD/Fc fusion protein. Nature of the experiment: SPR Biacore, mAb captured, huPD-1/Fc analyte. Here is the method: The binding kinetics of purified antibodies were measured by surface plasmon resonance using a Biacore […] instrument (GE Healthcare) using standard procedures. Briefly, goat anti-mouse IgG Fc polyclonal antibody (Genway) was directly immobilized across a biosensor chip, and antibodies samples were injected over reaction matrices at a flow rate of 5 μl/min. The association and dissociation rate constants, kₒₙ(M⁻¹ s⁻¹) and koff (s⁻¹) respectively, were determined with a continuous flow rate of 30 μl/min. Rate constants were derived by making kinetic binding measurements at five different concentrations of human PD-1/Fc protein. The equilibrium dissociation constant KD (M) of the reaction between antibodies and related target proteins was then calculated from the kinetic rate constants using the formula KD=koff/kₒₙ.

Experiment [5] shares this target. The experiment in a line: RBA ELISA on huPD-1/Fc; competitor biotin-huPD-L1/Fc. Here is the method: (§2) Supernatants displaying PD-1 specific activity were tested for the ability to block PD-1 binding to its ligands PD-L1 and PD-L2 using immobilized human PD-1 ECD/Fc as a target and PD-L1/Fc and PD-L2/Fc fusion proteins, prepared in the same manner as the PD-1 ECD/Fc binding proteins described in Example 1.3 above. To determine the relative potency of the antibody-containing supernatants, their ability to inhibit the binding of a human PD-1 ligand (PD-L1 or PD-L2) to human PD-1 protein was evaluated. ELISA plates were coated with 100 μl of 50 ng/m of huPD-1/Fc (i.e., the extracellular domain of PD-1 grafted onto the N-terminus of a human Fc region, recovered as a homodimer) in PBS and incubated overnight at 4° C. Plates were washed four times in washing buffer (PBS containing 0.05% Tween 20) and blocked for 1 hour at 37° C. with 200 μl per well of blocking buffer (1% BSA in PBS containing 0.05% Tween 20). After blocking buffer was removed, hybridoma supernatant (50 μl) was added to the wells, mixed with either 50 μl biotinylated human PD-L1/Fc ([…] final concentration) in blocking buffer or 50 μl biotinylated human PD-L2/Fc (final concentration 50 μg/ml) in blocking buffer, then incubated at 37° C. for 1 hour. Signal was developed by adding streptavidin-HRP (Sigma, Cat. No. S2468) (100 μl/well of streptavidin-HRP at 1:5000 dilution) and incubating for 40 minutes at 37° C. and washed four times in washing buffer. 100 μl of TMB solution were added per well. Following color development, the reaction was stopped with 1 Normal HCl and absorbance at 450 nm was measured. […]

Experiment [6] has the same target. Nature of the experiment: RBA ELISA on huPD-1/Fc; competitor biotin-huPD-L2/Fc. The procedure: as §2

B1: mAb718 (antibody, V domains shown)
VH: QVQLQQSGAELVRPGASVTLSCKASGYTFTDYEMHWAKQTPVHGLEWIGVIEPESGGTVYNQKFKGKAKLTADKSSRTAYMELRSLTSEDSAVYYCTREGFNSDHYFDYWGQGTTLTVSS
VL: DVLMTQTPLSLPVSLGDQASISCRSSQNIVHSNGNTYLEWYLQKPGQSPKLLIYKVFNRFSGVPDRFSGSGSGTDFTLKISRVEAEDLGVYYCFQGSHVPYTFGGGTKLEIK
notes: murine hybridoma anti-PD-1 mAb
For B1, the EC50 (in general, the concentration that produces a half-maximal response) in experiment [1] came to 0.02 nM; in experiment [2], 3.2 nM; in experiment [3] it was 4.2 nM. Besides, in experiment [4], binding was put at a Kd of 4.84 nM. The off-rate (koff) (as a rule, a measure of how fast the partners let go of each other) in experiment [4] is 0.000283 s⁻¹. Also, the on-rate constant (kon) (as a rule, the rate constant with which the complex forms) in experiment [4] came out at 58400 M⁻¹ s⁻¹. In addition, the IC50 (usually the concentration that inhibits the measured activity by half) in experiment [5] is 4.19 nM; in experiment [6], 1.91 nM. Also, the “TOP inhibition (%)” value in experiment [5] and in experiment [6] was 96.6% throughout.

B2: mAb713 (antibody, V domains shown)
VH: EVKLVESGGGLVKPGGSLELSCAASGFTSSDYGMHWVRQAPEKGLEWVAYISSGSYTIYYADTVKGRFTISRDNAKNTLFLQMTSLRSEDTAMYYCAKRGGSSHVNVMDYWGQGTSVTVSS
VL: DIQMTQSSSYLSVSLGGRVTITCKASDHINNWLAWYQQKPGNAPRLLISGATSLETGVPSRFSGSGSGKDYTLSITSLQTEDVATYYCQQYWSPPYTFGGGTKLEIK
notes: as for B1
In experiment [1], B2 had an EC50 of 0.08 nM. In experiment [2], this molecule had an EC50 of 1.1 nM. The same molecule gave an EC50 in experiment [3] of 0.9 nM. Besides, in experiment [4], the Kd (usually a measure of binding affinity in units of concentration) worked out at 1.96 nM, the koff stood at 0.000285 s⁻¹ and the kon is 145000 M⁻¹ s⁻¹. For the same molecule, in experiment [5], the IC50 was found to be 2.95 nM and the “TOP inhibition (%)” value was determined as 94.4%. In experiment [6], the IC50 amounted to 2.52 nM and the “TOP inhibition (%)” value came out at 93.5%.

B3: mAb703 (antibody, V domains shown)
VH: DVQLQESGPGLVKPSQSLSLTCSVTGYSITTGYYWNWIRQFPGNKLEWMGYMSYDGNNNYNPSLKNRISITRDTSKNQFLLRLNSVTTEDTATYFCARDRGTTILGGTMDYWGQGTSVTVS
VL: SIVMTQTPKFLFVSAGDRVTIACKASQSVSNDVAWYQQKPGQSPKLLIYYAFYRYTGVPDRFTGSGYGTDFTFTISTVQAEDLAVYFCQQDYSSPWTFGGGTKLEIK
notes: as for B1
The molecule B3 gave an EC50 in experiment [1] of 0.05 nM. The EC50 in experiment [2] was 0.5 nM. The EC50 in experiment [3] amounted to 0.7 nM. In experiment [4], this molecule gave a Kd of 2.45 nM, a dissociation rate constant (koff) of 0.00085 s⁻¹ and a kon of 347000 M⁻¹ s⁻¹. For the same molecule, in experiment [5], the half-maximal inhibitory concentration (IC50) came to 3 nM and the “TOP inhibition (%)” value stood at 96%. Further, in experiment [6], the concentration for half-maximal inhibition (IC50) is 2.02 nM and the “TOP inhibition (%)” value amounted to 95.7%.

B4: mAb715 (antibody, V domains shown)
VH: EVMLVESGGGLLKPGGSLKLSCAASGFTFSSYAMSWVRQTPEKRLEWVATISGGGRDTYYPDSVKGRFTISRDNAKNTLYLQMTSLRSEDTAFYYCAGQGGTYLFASWGQGTLVTVSA
VL: DIVMTQSHKFMSTSVGDSVTITCKASQDVNTAVAWYQQKPGQPPKVLIYWASTRHTGVPDRFTGSGSGTDYTLTISSVQAEDLALYYCQQHYTTPYTFGGGTKLEIK
notes: as for B1
As for B4, in experiment [1], a half-maximal effect (EC50) was put at 0.04 nM. Further, in experiment [2], the EC50 was 1.1 nM. A half-maximal effect in experiment [3] (EC50) was put at 0.9 nM. In experiment [4], this molecule displayed an equilibrium dissociation constant (Kd) of 1.5 nM, an off-rate (koff) of 0.000237 s⁻¹ and a kon of 158000 M⁻¹ s⁻¹. In experiment [5], the 50% inhibitory concentration (IC50) was determined as 2.91 nM and the “TOP inhibition (%)” value stood at 86.9%. Moreover, in experiment [6], the IC50 was 2.17 nM and the “TOP inhibition (%)” value amounted to 88%.

B5: mAb709 (antibody, V domains shown)
VH: EVKLVESGGGLVKPGGSLKLSCAASGFTFSFYTMSWVRQTPEKRLEWVATISGGGRDTYYPDSVKGRFTISRDNAKNTLYLHMSSLRSEDTALYYCAGQGGNYLFAYWGQGTLVTVSA
VL: DIVMTQSHKFMSTSVGDSVTITCKASQDVNTVVAWYQQKPGQSLKVLISWASTRHTGVPARFTGSGSGTDYTLTISSVQAEDLALYYCQQHYTTPYTFGGGTQLEIK
notes: as for B1
Regarding B5, the concentration for a half-maximal effect (EC50) in experiment [1] turned out to be 0.01 nM; in experiment [2] it was 0.2 nM; in experiment [3], 0.2 nM. Also, binding in experiment [4] was put at a Kd of 0.939 nM. In addition, the off-rate constant (koff) in experiment [4] was 0.000104 s⁻¹. Besides, the on-rate constant (kon) in experiment [4] is 111000 M⁻¹ s⁻¹. Further, the 50% inhibitory concentration (IC50) in experiment [5] was 0.8 nM; in experiment [6], 0.52 nM. Also, the “TOP inhibition (%)” value in experiment [5] was determined as 91.6%; in experiment [6], 93.7%.

B6: mAb719 (antibody, V domains shown)
VH: EVKLVESGGGLVKPGGSLKLSCTASGFSFSSHLMSWVRQTPEKRLEWVAAISGGGADTYYPDSVKGRFTISRDNAKNTLYLQMRSLRSEDTALYYCTRQILAFDSWGQGTTLTVSS
VL: DIQMNQSPSSLSVSLGDTITITCHASQNIYVWLNWYQQKPGNIPKLLIYKASNLHTGVPSRFSGGGSGTGFTLTISSLQPEDIATYYCQQGQSYPWTFGGGTKLEIK
notes: as for B1
Turning to B6, the concentration for a half-maximal effect (EC50) is 0.02 nM in experiment [1], 1.7 nM in experiment [2] and 2.1 nM in experiment [3]. In experiment [4], this molecule gave a Kd of 3 nM. In experiment [4], this molecule showed a koff of 0.000215 s⁻¹. Further, the kon in experiment [4] was found to be 71500 M⁻¹ s⁻¹. Further, the IC50 in experiment [5] was 3.39 nM; in experiment [6], 1.85 nM. For the same molecule, the “TOP inhibition (%)” value in experiment [5] is 96.5%; in experiment [6] it was 95.2%.

B7: mAb714 (antibody, V domains shown)
VH: EVHLQQSGPELVKPGASVKIFCKASGYTFTDNNVEWVKQSHGKSLEWIGDINPNNGDTLYSQYFKDKATLTVDKSSTTAYMELRSLTSEDTGLYYCARGKSDQFDYWGQGTTLTVSS
VL: DIQMTQSPASQSASLGESVTITCLASQTIGTWLAWYQQKPGKSPQLLIYAATSLADGVPSRFSGSGSGTKFSFKISSLQGEDFVSYYCQQLYSSPWTFGGGTKLEIK
notes: as for B1
B7: the values for the EC50 in experiment [1], in experiment [2] and in experiment [3] were 0.05 nM, 1.6 nM and 0.8 nM, respectively. Also, in experiment [4], the affinity, expressed as Kd, was 2.11 nM. In experiment [4], this molecule registered a koff of 0.00021 s⁻¹. In experiment [4], this molecule displayed a kon of 99400 M⁻¹ s⁻¹. Also, the results for the half-maximal inhibitory concentration (IC50) in experiment [5] and in experiment [6] were 2.95 nM and 2.24 nM, respectively. The results for the “TOP inhibition (%)” value in experiment [5] and in experiment [6] were 92.3% and 93.1%, respectively.
